Data taken from the domain aggregation screens of Martell et al. (2025).

Experiment: soluble fraction after stress (log2 fold change); higher = more stays soluble; pooled small domains, quantitative proteomics
Conditions: stress: 75 degC
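Note: 20 min heating vs room temperature control held 20 min.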

First: HMGKAVTLEEARAIIQAKVPGASPDMIQIWEEHGDGRGRYEGELSYNNMKYEFEMDPKTGIIFDWNA
Second: HMGKEDISQINKLYQNQILDYETYIDTLNSFNIDTKSKDFKNLLDLFIKKSISFETFNKGIINIHNKS
The “soluble fraction (log2)” value of the first is lower: -0.0538 for the first, 0.328 for the second.

Compared with “HMGKFMVQVGAFSRINGAEITRTKYDNLGTHKAIIKNLDGMNRVFLTGFLSEDEARDFIASSNLKGAFIIR”, “HMGKGVDKIMKMADDYSYGKIAGKTVDVMTAKLFQAAYNKAPQKAKDKVDKMNEKQLYIFMMNLWKRF” is higher in “soluble fraction (log2)” value: -2.13 for the first, -0.768 for the second.

Compared with “HMGKIILLFSDDDGVFDTALYRVRNYDGHRFAQSLGNAEMKWRHSEDEYFDFVLTSLREDGYDIEEIE”, “HMGKIINMSKVKQVLRLHTQGVSNRRIALDLGLYKGTVNSYIRKIKDHGYDIAEVLKLDDPVLESKLFA” is higher in “soluble fraction (log2)” value: -1.18 for the first, -0.335 for the second.

“HMGKKGPELNDNEKIIFNIISKENSMNLDDLKNRTELSNKQWDKAIKGLRSHELVNIEKIDDQLLIHL” and “HMGKKQLVVDLQSIITDVPAALKSYGLEIGQDGKSLIYTYDTKGERTGITTLLNDLQKAGLQMTDMKTQQ” are within 0.2 log units of each other in “soluble fraction (log2)” value: 0.0386 for the first, -0.0104 for the second.

Going from “HMGKPTPASQVATRWLAGDLPETLPVAGPAPSFETLARSVSTDFHPRAVLQELLRLGVAEEADGRVRLLK” to “HMGKQPLYEQLVDLLRDRIENDMETGELLPSERKLAHHFGLSRTTVRLAMDRLETLGLITRVHGKDTFVAE”, the “soluble fraction (log2)” value falls from -0.212 to -1.52.

Compared with “HMGKREKTKVANRQAILVAARAVFAELGYEAATVRDIIRGTDLASGTFYNYFKSKEEVFDALADDGA”, “HMGKSETALELIKRGHRLIADDAVEITRIGSTLSGTAPELIRNYLEVRGVGVIDVEKLFGVGAVQDSTQI” is higher in “soluble fraction (log2)” value: -1.73 for the first, 0.0405 for the second.

First: HMGKSPLDALSAREKEVLTYITRGVSINDIAAVLYLSPKTVSTHKTNLMQKLGIENNADLILFGVNHGLND
Second: HMGLIAPMPGQIRSVAVSVGDVVKKGQTLLTMEAMKMEIRIQALKDGRVTALHAAQGQTVEGEQILIEVE
The “soluble fraction (log2)” value of the first is higher: -1.51 for the first, -2.32 for the second.

Going from “HMGLLEMPSERERQVLVLIAEGLSNKEIAARLYLTEGTVKNHAHSLYAKLNVTTRTLAIARARQLGI” to “HMGLLLSQLDKDYQRYIDLADSTFRDNQLAVSRGWYNRALGVKAAEKYPKDQIAEIEKKIAERM”, the “soluble fraction (log2)” value rises from -1.37 to -0.598.

First: HMGLNEGLNEGQQKVIQHIQENEGIKVKEISLKLNMPIDTVDRHIRVLKNLNLIERRGSRKTGGYFISN
Second: HMGLNELQVKLNEAMQRLSLKHRTVVVMHDIEGIPHDEIAKIVGVSVGTIRSRLFYARRQLQADLGEY
The “soluble fraction (log2)” value of the first is higher: -0.461 for the first, -2.32 for the second.

Compared with “HMGLNNVSDILRLDFNSFKKKFDKLPSGYKNSVVEQAALMIKSGELDSIKIKDYIEKSMGIELDI”, “HMGLQDLFLNSLRKSKTPVTMFLVKGVKLQGVVTWFDNFSVLLRRDGMSQLVYKHSISTIMP” is higher in “soluble fraction (log2)” value: -0.511 for the first, -0.0352 for the second.

Compared with “HMGLSARIAQRIHGLRTAQRMSLEALAARSGVSRSMISLIERNEASPTAVVLEKIATGLNVVLAALFDTP”, “HMGLSNYEFNSISQTVKEKLEQGPLTLKALVDETAHLFAEDKVVSVVQWLIDQRDLAYDDHGLLQWKG” is higher in “soluble fraction (log2)” value: -1.76 for the first, -0.792 for the second.

Going from “HMGLTLREKMGHVLEMLKGREFLPFVSLFTVEEGRIGVVVTFMSILELVKEGILDLVQTESFGPIHVKAR” to “HMGMAETTARILQLLGLLQSRRGWSGQELAERLGVTTRSVRRDVERLRELGYPVHASAGHGGGYQLGA”, the “soluble fraction (log2)” value falls from -0.541 to -2.18.

First: HMGMGDALRILFNQAMLIEREQYLQAGAYERNENPVNYANGFKAKTLNTRVGALEVAVPQTRDSAFYPSFL
Second: HMGMLATFVTSAKVPDDVVYAITKEVFENLDEFKKLHPALEGLTRETMLEGLTAPIHPGALKYYKEAGLM
The “soluble fraction (log2)” value of the first is higher: 0.0631 for the first, -0.533 for the second.

Going from “HMGMSQQKQSSTVRIIMQDISDANEGLMKMSQIIDAALAEGISETIVRNAISNLHRGGTIYESQTGTYQW” to “HMGMTDEELNREEERVVAELEAKDEEELTIYNEEDLTFEETLDLPEGSLMRDRENGMIYLKVLDIWMPY”, the “soluble fraction (log2)” value falls from -0.196 to -0.575.

Going from “HMGMTNRIKELRKAKGYRQEDLAAALGVSRQTIIAVENNKYNPTLELAMKLARHLQTTVEELFQL” to “HMGMVEFEIGERDHSEDVSRKLFEAGLIEDASDFNQYMIEKKMDDHLQTGKYQIPKGATKDEILELIVR”, the “soluble fraction (log2)” value rises from -2.01 to 0.043.

“HMGMYAEERHQAIASLARKHGRVSVAELAERFNVTSETIRRDLDSLARRGLLTRVHGGAVPVE” and “HMGMYFTEMRKNEGLIALNGVAESNKRVSDLMDNLKDSSSFDAADIKAVKSGSGDASSLMDFELLVT” are within 0.2 log units of each other in “soluble fraction (log2)” value: 0.0144 for the first, -0.0643 for the second.

First: HMGNASQAARRQRIVDAALELLQDRPYDQIQMRDVAEGAGVALGTLYRYFPSKEQLFAHVLVE
Second: HMGNEMQVPNVAGKTVDEAIEIFNNMGLKVAAENKYAQSDDVKEGDVVKTDPSSGRNVKKGSEITLYISQG
The “soluble fraction (log2)” value of the first is lower: -0.286 for the first, 0.375 for the second.

Going from “HMGNEVMYRQDLSEQELLSFIKKYTGQDEVTHIVVGAPKQRDNTPSPVETKITPFVVQLKAQFPDVNVV” to “HMGNFNDMLKYLRVREKMSQAELADKLGVSKSTVGMYELGKREPDFETLEAIADLFNVDMNFLLGK”, the “soluble fraction (log2)” value falls from 0.0976 to -0.423.

First: HMGNHMSFKMWGEQLQEAFRALETYDTQKAKTILNELVRFPIDSDITKALKGIISNIDDMMA
Second: HMGNLPPAVINARIKVSPAGRGVFVGFDKGSTSTEAKYADAIRGYLPNIEFNKDDHESVVTVPFNFR
The “soluble fraction (log2)” value of the first is lower: -0.881 for the first, -0.0124 for the second.

“HMGNTLAYSEFRQKVQEGAVKQVVLSEDRVTGELTNGDRFTANIVRDPELLKMLNDNNVKYDGKPT” and “HMGNVGEAIEALVKGFQEGNQFQTLLGVTGSGKTFTMANVIAALNKPTLIISHNKTLAAQLYLSLIHIS” are within 0.2 log units of each other in “soluble fraction (log2)” value: 0.154 for the first, 0.277 for the second.

First: HMGNYRVIKWGMQGDDVKLMQQMLINRGYVLSATGKYASRTLKAIMAFQEANGLKADGIVGKRTWNKLL
Second: HMGPAYEKIVANGQTFYRYNVKKGEGLMAVSRTFNVSVNDILKYNPSAASGLKDGQELLIPVIDDA
The “soluble fraction (log2)” value of the first is lower: -2.78 for the first, 0.16 for the second.

“HMGPESKLTDAIKDYIYALYENLKGKSKFRNTIIEEVKKLYGVDISRESIRRVVNQKTDAETTENDDDEKA” and “HMGPKALLKIPGLQEVDAELLFKEGYKSISAVASADPEMLKAIPGVDEQKVTEWVTGAEQILSQQVNKGA” are within 0.2 log units of each other in “soluble fraction (log2)” value: 0.432 for the first, 0.49 for the second.

“HMGPKPVDMSPIPEGQRNQVLHDWMYGRAANHPENWGQIRSDALERGLKSGLKADEIHAITGSVARALGLE” and “HMGPNPLTEREQEILQLARTGEPVARLAKRLFLSPGTVRNHLSSAIGKLGAANRVEAAQFATERGW” are within 0.2 log units of each other in “soluble fraction (log2)” value: 0.0169 for the first, 0.0399 for the second.

“HMGPSLDAVREQIRDLIAEEDKSAPYSDLSLVAELEKRGIHISRRTIAKYRGEMGIPNSDQRRYF” and “HMGPSSIVVYVSGAVKTPGVYTLAPGSRVDDAVRAAGGLSERAESAGTNLAAQLSDGEHVHVAAAGE” are within 0.2 log units of each other in “soluble fraction (log2)” value: -0.0939 for the first, 0.0915 for the second.

Going from “HMGPTGGLTPHIAIADKRASEAIEFYKQAFGAVEQVRMPAEDGVRLMHAHLLVNGSSLMMHDDFPEYSGQ” to “HMGPTLSPAEKRVFEVIPYDAILQDMVIRAAELPPGEVLAALTTLELKGLIKRLPGNLVMRRAR”, the “soluble fraction (log2)” value falls from 0.133 to -0.294.

First: HMGPVALGVTDGATYFSSVTITFRRGTAVLDGEPIASGHTVYKSGAHSLTLTAGGKTRTIAFTMDT
Second: HMGPVPLASAADMEKFYSHLQQVLDEVDFKDRTGSGHLMARLRRLFQRTVLDQNEINILRGILMAVQGRR
The “soluble fraction (log2)” value of the first is lower: -4.04 for the first, -3.03 for the second.

Compared with “HMGQGAASAPLRELGVDPVSEKQMVLKDGRFGPYVTDGETNASLRKGDEVETITDERASELLQMRRDAGPS”, “HMGQISDDGALKKLASEVLAANPQALADWKAGKQQAVSFLVGQAMKASKGRGDAALLGELIRAALD” is higher in “soluble fraction (log2)” value: -0.139 for the first, 0.2 for the second.

Going from “HMGQKASEVEKIFVELQQQIIRGDLPPGYRLVESQIAAQFGVSRTPARLAIERLATAGLVAHETNRGATVH” to “HMGQKNEDESLAKFYVHKKGNQYGPYSLIQIREYLKNNSFSLDDLASWDGQSWKKISQIPNLN”, the “soluble fraction (log2)” value rises from -0.823 to 0.12.

Compared with “HMGQLTDKQILLFSGKLAYEPTFASKYSKAGESYDDFIIRISGDLTDPKKIKEYSPYLKELGF”, “HMGQNYTIVKGDSLWKIAQKQYGDGSQWKKIYDANKDAIESAAKKYGKKSSDSGKWIYPGVSLII” is higher in “soluble fraction (log2)” value: -0.35 for the first, -0.112 for the second.

Going from “HMGQVEVPDVVGMTQERAITTLTEAKLVAQIQLTPADVAKGLVAAQSPRAGLKIGEGSFVTIEVSTGPVI” to “HMGQVFEGTFNRKANGKNSVTPAEGGEPVFIAERNSLHAMNGDLVKVSLLAKKKHQPREAQVIEILKRSD”, the “soluble fraction (log2)” value rises from -0.306 to 0.128.

“HMGQVPPLTRRETEIARLVSRGLSNKEIASTLVISPRTAEGHVEHILDKLGFSSRTQIATWLNEQTRNGK” and “HMGRDWKTDLLNLATARGWGDVSYEVTGEGPDHARVYTAVAIVANQKTGTGVGPSKKEAERLAAEQAYRML” are within 0.2 log units of each other in “soluble fraction (log2)” value: -0.14 for the first, -0.099 for the second.

First: HMGRELSDLELSLLRILDDKIPLLIDEAADRLQLPVAQVLSAVTIMEIDGLIRREGMRKYLRTVEVEETK
Second: HMGRFAETVEHIVAAQLARRQGIPTMEQFASFFNVSRATFQRRLGEEGETLEQIKQRVRLRLALELLHP
The “soluble fraction (log2)” value of the first is higher: -1.63 for the first, -3.1 for the second.

Compared with “HMGRGAAKGPLKELGLDPVTGRPLVVKDGKFGMYVTDGETNAGLRRGDLVEQLTLDRGMELLAERRARADQ”, “HMGRKIDDPSSMTGAEKAAVILLALGDEQRQLWEMMDDEEIRVVSQAMVNLGNVTSGAVEKLIMEFVGSMS” is lower in “soluble fraction (log2)” value: 0.201 for the first, -0.37 for the second.

First: HMGRKPATTIPLQVRNAVLDLYRTKYYGANFQHYTELLHEHEGIRISTSSVAKILEAEYILSPK
Second: HMGRKPVSPEIVERVLQLAKSNPDWGYEHIAGTMRYLGYNVSATTIRHILEANGIVPDPERRL
The “soluble fraction (log2)” value of the first is lower: -1.58 for the first, -0.464 for the second.

“HMGRMSLDEAKAVILPIGEHKGHTMGEVLAIKPGLIDFYASQKFNSGKYPYLKEAAQVILENQG” and “HMGRRERKKLQSRRAIIEAAVTEFKEKGFREASVADIMTRADLGLGTFYNYFQSKEDILMSLLS” are within 0.2 log units of each other in “soluble fraction (log2)” value: -0.0288 for the first, -0.0594 for the second.

Compared with “HMGRRRAAPQEPLRQFPASPVTGQPIKLLLGQYGPYVTDGTTNASLPKGSSPDELTFEQATQLLAERALRG”, “HMGRSARVQQAVHQAVRALLEENDGERSALSVPLVAERAGVNSSTIYRRWGDLPRLLAAVASN” is lower in “soluble fraction (log2)” value: 0.0333 for the first, -0.686 for the second.

“HMGRTVKGVNFVGLRDAGDPVDLAEIYSKEGADELVFLDITATHEKRKTLLDLVTRVAERINIPFTVGGGI” and “HMGSALLEAGADDAGQRLDQWLAAKLGPSISRSRVQALIKQGAVLVGGKPAGEAKRKLVAGDVVSVALPEP” are within 0.2 log units of each other in “soluble fraction (log2)” value: 0.056 for the first, 0.0393 for the second.

Compared with “HMGSDLVAWAQTRIGRHPEEAADVIAALIDRHGEARVRAASRSLLARKFAHASDLRTAIDAAIG”, “HMGSEEMLGALGVVERATDDGDWWIAVHGEHWRARSAQALVPGDRVRVARIDGLTLTVTPIA” is lower in “soluble fraction (log2)” value: -0.365 for the first, -0.632 for the second.
